Laboratory results as given in US20100081575A1 (published 2010).

Target: T1, ovalbumin (UniProt P01012 2-386)
T1 sequence (looked up): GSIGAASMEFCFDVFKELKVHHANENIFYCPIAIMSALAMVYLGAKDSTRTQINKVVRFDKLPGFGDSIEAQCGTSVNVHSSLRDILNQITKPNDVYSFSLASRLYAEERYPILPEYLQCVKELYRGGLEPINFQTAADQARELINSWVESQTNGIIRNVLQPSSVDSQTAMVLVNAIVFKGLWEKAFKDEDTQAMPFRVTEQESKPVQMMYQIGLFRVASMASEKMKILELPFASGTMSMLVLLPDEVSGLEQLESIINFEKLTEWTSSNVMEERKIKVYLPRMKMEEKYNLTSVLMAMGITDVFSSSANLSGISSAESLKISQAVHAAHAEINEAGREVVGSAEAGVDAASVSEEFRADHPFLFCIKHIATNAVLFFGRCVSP
Assay: phage ELISA, anti-HA or anti-M13 detection

B1: 2G12 domain exchanged Fab fragment displayed on phage, expressed from the 2G12 pCAL G13 vector (SEQ ID NO: 11) (Fab, not shown: small tags and cut ends; large carriers)
heavy 1: EVQLVESGGGLVKAGGSLILSCGVSNFRISAHTMNWVRRVPGGGLEWVASISTSSTYRDYADAVKGRFTVSRDDLEDFVYLQMHKMRVEDTAIYYCARKGSDRLSDNDPFDAWGPGTVVTVSPASTKGPSVFPLAPSSKSTSGGTAALGCLVKDYFPEPVTVSWNSGALTSGVHTFPAVLQSSGLYSLSSVVTVPSSSLGTQTYICNVNHKPSNTKVDKKVEPKSCLRYPYDVPDYA
heavy 2: B1 heavy 1
light: AGVVMTQSPSTLSASVGDTITITCRASQSIETWLAWYQQKPGKAPKLLIYKASTLKTGVPSRFSGSGSGTEFTLTISGLQFDDFATYHCQHYAGYSATFGQGTRVEIKRTVAAPSVFIFPPSDEQLKSGTASVVCLLNNFYPREAKVQWKVDNALQSGNSQESVTEQDSKDSTYSLSSTLTLSKADYEKHKVYACEVTHQGLSSPVTKSFNRGEC
notes: also called 2G12 Fab; 2G12 alone
**Q.** Does B1 bind?
**A.** no binding

B2: 2G12 domain exchanged Fab fragment displayed on phage, expressed from the 2G12 pCAL A1 vector (SEQ ID NO: 217) (Fab)
heavy 1: EVQLVESGGGLVKAGGSLILSCGVSNFRISAHTMNWVRRVPGGGLEWVASISTSSTYRDYADAVKGRFTVSRDDLEDFVYLQMHKMRVEDTAIYYCARKGSDRLSDNDPFDAWGPGTVVTVSPASTKGPSVFPLAPSSKSTSGGTAALGCLVKDYFPEPVTVSWNSGALTSGVHTFPAVLQSSGLYSLSSVVTVPSSSLGTQTYICNVNHKPSNTKVDKKVEPKSCLR
heavy 2: B2 heavy 1
light: B1 light
**Q.** Does B2 bind?
**A.** no binding
